Reference: PMC5504291, “Bacterial lipid droplets bind to DNA via an intermediary protein that enhances survival under stress”

How the values were obtained:
MLDSR (GST-MLDSR) [1] = target: T1, MLDSR (GST-MLDSR) (Rhodococcus jostii RHA1, UniProt A0A1H4Y2R3 2-168); assay: SPR; EMSA: 20 mM Tris-HCl pH 7.5, 150 mM NaCl, 5 mM MgCl2, 1 mM EDTA, 1 mM DTT, 4% glycerol, 24 C or room temperature, 30-40 min; SPR: 20 mM Tris-HCl pH 7.5, 150 mM; settings: protein: recombinant; tags: N-terminal GST; label: 5'-biotin on strand 1; blunt
T1 sequence: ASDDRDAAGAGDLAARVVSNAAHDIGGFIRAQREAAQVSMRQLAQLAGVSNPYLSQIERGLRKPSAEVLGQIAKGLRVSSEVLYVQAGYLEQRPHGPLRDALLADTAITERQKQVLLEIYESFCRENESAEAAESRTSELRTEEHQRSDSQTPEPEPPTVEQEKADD

MLDSR (GST-MLDSR) [2] = target: T1, MLDSR (GST-MLDSR); assay: SPR; 1:1 model though DNA holds two sites; EMSA: 20 mM Tris-HCl pH 7.5, 150 mM NaCl, 5 mM MgCl2, 1 mM EDTA, 1 mM DTT, 4% glycerol, 24 C or room temperature, 30-40 min; SPR: 20 mM Tris-HCl pH 7.5, 150 mM; settings: protein: recombinant; tags: N-terminal GST; label: 5'-biotin on strand 1; blunt
MLDSR (GST-MLDSR) [3] = target: T1, MLDSR (GST-MLDSR); assay: EMSA; rough estimate by authors from Fig. 5b; EMSA: 20 mM Tris-HCl pH 7.5, 150 mM NaCl, 5 mM MgCl2, 1 mM EDTA, 1 mM DTT, 4% glycerol, 24 C or room temperature, 30-40 min; SPR: 20 mM Tris-HCl pH 7.5, 150 mM; settings: protein: recombinant; tags: N-terminal GST; blunt
MLDSR (GST-MLDSR) [4] = target: T1, MLDSR (GST-MLDSR); assay: EMSA; EMSA: 20 mM Tris-HCl pH 7.5, 150 mM NaCl, 5 mM MgCl2, 1 mM EDTA, 1 mM DTT, 4% glycerol, 24 C or room temperature, 30-40 min; SPR: 20 mM Tris-HCl pH 7.5, 150 mM; settings: protein: recombinant; tags: N-terminal GST; blunt

B1: biotin-motif 1 (20 bp) (dsDNA)
DNA 1: GTGCTTGCAATTGCTAGCAC
DNA 2: GTGCTAGCAATTGCAAGCAC
Kd (MLDSR (GST-MLDSR) [1]): 175 nM

B2: biotin-43 bp (motif 1+2) (dsDNA)
DNA 1: TCCGCTAGCTGGGTGCTAACAGAGTGCTTGCAATTGCTAGCAC
DNA 2: GTGCTAGCAATTGCAAGCACTCTGTTAGCACCCAGCTAGCGGA
Kd (MLDSR (GST-MLDSR) [2]): 62 nM

B3: 43 bp (motif 1+2) (dsDNA)
DNA 1: TCCGCTAGCTGGGTGCTAACAGAGTGCTTGCAATTGCTAGCAC
DNA 2: GTGCTAGCAATTGCAAGCACTCTGTTAGCACCCAGCTAGCGGA
Kd (MLDSR (GST-MLDSR) [3]): ~442 nM

B4: biotin-motif 2 (23 bp) (dsDNA)
DNA 1: TCCGCTAGCTGGGTGCTAACAGA
DNA 2: TCTGTTAGCACCCAGCTAGCGGA
Kd (MLDSR (GST-MLDSR) [1]): 5140 nM

B5: 103 bp (dsDNA)
DNA 1: CAATCGCCTCGACGGAGGGTCCGCTAGCTGGGTGCTAACAGAGTGCTTGCAATTGCTAGCACCCTGCTTTAGCCTTGGTTCTGCCCAGCAACACGGAGGACTG
DNA 2: CAGTCCTCCGTGTTGCTGGGCAGAACCAAGGCTAAAGCAGGGTGCTAGCAATTGCAAGCACTCTGTTAGCACCCAGCTAGCGGACCCTCCGTCGAGGCGATTG
binding result (MLDSR (GST-MLDSR) [4]): binds
